From article PMC2063677 come the findings set out here.

In one data set the target is T1, IMP KH3 (Drosophila melanogaster, UniProt Q8IR99 301-396).
T1 sequence: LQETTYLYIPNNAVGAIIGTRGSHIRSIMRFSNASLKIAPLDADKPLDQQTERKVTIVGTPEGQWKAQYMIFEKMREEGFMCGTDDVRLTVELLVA
Nature of the data set: filter binding.

The target of a further data set is T2, IMP full length (Drosophila melanogaster, UniProt Q8IR99 1-573).
T2 sequence: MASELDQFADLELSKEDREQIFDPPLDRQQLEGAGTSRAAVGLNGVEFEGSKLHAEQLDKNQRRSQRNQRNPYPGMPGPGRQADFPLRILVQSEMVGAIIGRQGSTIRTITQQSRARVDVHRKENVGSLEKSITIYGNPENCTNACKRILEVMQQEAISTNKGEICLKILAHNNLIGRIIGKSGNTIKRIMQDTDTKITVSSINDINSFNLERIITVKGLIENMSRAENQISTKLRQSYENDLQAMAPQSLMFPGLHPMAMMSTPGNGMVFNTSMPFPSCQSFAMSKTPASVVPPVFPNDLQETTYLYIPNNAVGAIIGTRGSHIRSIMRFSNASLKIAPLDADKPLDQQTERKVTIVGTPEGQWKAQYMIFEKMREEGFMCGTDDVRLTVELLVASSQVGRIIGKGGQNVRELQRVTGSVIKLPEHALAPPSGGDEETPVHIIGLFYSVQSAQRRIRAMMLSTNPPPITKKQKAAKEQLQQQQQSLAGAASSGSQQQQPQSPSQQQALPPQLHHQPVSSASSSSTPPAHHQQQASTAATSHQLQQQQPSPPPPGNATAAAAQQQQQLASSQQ
Nature of the data set: filter binding.

B1: 3x 4-12-13 WT (UUUAU) (ssRNA)
RNA: GUUUUUAUUAUUUUUAUUUUUUCAACUUUUUAUUAUUUUUAUUUUUUCAACUUUUUAUUAUUUUUAUUUUUUCAAC
On to B1, for which the binding result in the data set with IMP KH3 and in the data set with IMP full length was “binds” in each case.
